This test has as its target T1, HLA-A*02:01 (human).
T1 construct: captured on streptavidin plates; also called peptide-receptive MHC molecules
Description: UV peptide exchange ELISA (anti-b2m); yield grade: + >10%, ++ >20%, +++ >50, ++++ >75%. Put shortly:
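Peptide–HLA-A*02:01 complexes were formed by UV cleavage of a photolabile ligand and exchange with the test peptide. Exchange products were diluted 100-fold, captured on streptavidin and detected with HRP-anti-β2m (TMB, 450 nm). Yield was read against refolded HLA-A*02:01/MLA-001 monomer standards (15-500 ng/ml).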
A general note: An ELISA detects its analyte on a solid surface through an enzyme-linked reagent.

B1: FLAEAARSL (peptide)
peptide: FLAEAARSL
With B1, the peptide exchange yield is > 75%.

B2: QIDSIHLLL (peptide)
peptide: QIDSIHLLL
Take B2: the peptide exchange yield was 50 to 75%.

B3: LLDALQHEL (peptide)
peptide: LLDALQHEL
Regarding B3, the peptide exchange yield was 50 to 75%.

B4: VMFEYGMRL (peptide)
peptide: VMFEYGMRL
For the molecule B4, the peptide exchange yield was > 75%.

B5: AVDNILLKL (peptide)
peptide: AVDNILLKL
In the case of B5, the peptide exchange yield lay within 50 to 75%.

B6: ELDKIYETL (peptide)
peptide: ELDKIYETL
Turning to B6, the peptide exchange yield is 10 to 20%.

B7: ILPEAQDYFL (peptide)
peptide: ILPEAQDYFL
For B7, the peptide exchange yield was > 75%.

B8: GTIPLIESL (peptide)
peptide: GTIPLIESL
For the molecule B8, the peptide exchange yield was in the range of 10 to 20%.

B9: ALKDLVNLI (peptide)
peptide: ALKDLVNLI
As to B9, the peptide exchange yield is > 75%.

B10: SIDDSDPIV (peptide)
peptide: SIDDSDPIV
Regarding B10, the peptide exchange yield lay within 10 to 20%.

B11: SLAGLVLYV (peptide)
peptide: SLAGLVLYV
Consider B11, for which the peptide exchange yield was > 75%.

B12: LIDKIIEYL (peptide)
peptide: LIDKIIEYL
In the case of B12, the peptide exchange yield is 20 to 50%.

B13: NLDYAILKL (peptide)
peptide: NLDYAILKL
B13: the peptide exchange yield is 10 to 20%.

B14: SIPDTIASV (peptide)
peptide: SIPDTIASV
As for B14, the peptide exchange yield was 50 to 75%.

B15: ILDNSPAFL (peptide)
peptide: ILDNSPAFL
As to B15, the peptide exchange yield is 50 to 75%.

B16: LLDAFSIKL (peptide)
peptide: LLDAFSIKL
In the case of B16, the peptide exchange yield was in the range of 50 to 75%.

B17: LLDTTQKYL (peptide)
peptide: LLDTTQKYL
B17: the peptide exchange yield is > 75%.

B18: NLPSELPQL (peptide)
peptide: NLPSELPQL
On to B18, for which the peptide exchange yield is 50 to 75%.

B19: GLDKVITVL (peptide)
peptide: GLDKVITVL
With B19, the peptide exchange yield was in the range of 50 to 75%.

B20: IIDDKPIGL (peptide)
peptide: IIDDKPIGL
For B20, the peptide exchange yield fell in the range of 50 to 75%.

B21: TLLEVDAIVNA (peptide)
peptide: TLLEVDAIVNA
As for B21, the peptide exchange yield is > 75%.

B22: ILGDWSIQV (peptide)
peptide: ILGDWSIQV
As to B22, the peptide exchange yield is > 75%.

B23: GILSFLPVL (peptide)
peptide: GILSFLPVL
For the molecule B23, the peptide exchange yield lay in the range of 50 to 75%.

B24: KLSVHVTAL (peptide)
peptide: KLSVHVTAL
As to B24, the peptide exchange yield was > 75%.

B25: NLDATVTAL (peptide)
peptide: NLDATVTAL
Consider B25, for which the peptide exchange yield was 50 to 75%.

B26: LLDMSLVKL (peptide)
peptide: LLDMSLVKL
Consider B26, for which the peptide exchange yield lay within 50 to 75%.

B27: FLDDGNQML (peptide)
peptide: FLDDGNQML
For the molecule B27, the peptide exchange yield lay within 50 to 75%.

B28: SIDDVVKKL (peptide)
peptide: SIDDVVKKL
As for B28, the peptide exchange yield fell in the range of 20 to 50%.

B29: LIDEAAQML (peptide)
peptide: LIDEAAQML
In the case of B29, the peptide exchange yield was 50 to 75%.

B30: NLQEKVPEL (peptide)
peptide: NLQEKVPEL
As for B30, the peptide exchange yield was 50 to 75%.

B31: NLDKLYHGL (peptide)
peptide: NLDKLYHGL
As for B31, the peptide exchange yield is 10 to 20%.

B32: LLAKAVQNV (peptide)
peptide: LLAKAVQNV
As for B32, the peptide exchange yield fell in the range of 50 to 75%.

B33: ILDGIIREL (peptide)
peptide: ILDGIIREL
With B33, the peptide exchange yield was in the range of 50 to 75%.

B34: LLDSGAFHL (peptide)
peptide: LLDSGAFHL
Consider B34, for which the peptide exchange yield lay in the range of 50 to 75%.

B35: ILDYIHNGL (peptide)
peptide: ILDYIHNGL
Consider B35, for which the peptide exchange yield is 50 to 75%.

B36: SLGPIMLTKI (peptide)
peptide: SLGPIMLTKI
With B36, the peptide exchange yield was 20 to 50%.

B37: ILDELVKSL (peptide)
peptide: ILDELVKSL
For the molecule B37, the peptide exchange yield is 50 to 75%.

B38: TTLGGFAKV (peptide)
peptide: TTLGGFAKV
B38: the peptide exchange yield is 20 to 50%.

B39: IIDDVMKEL (peptide)
peptide: IIDDVMKEL
As to B39, the peptide exchange yield lay within 20 to 50%.

B40: GLLDVMYQV (peptide)
peptide: GLLDVMYQV
As for B40, the peptide exchange yield is > 75%.

B41: YVDSEGIVRM (peptide)
peptide: YVDSEGIVRM
With B41, the peptide exchange yield was in the range of 10 to 20%.

B42: FADELSHLL (peptide)
peptide: FADELSHLL
With B42, the peptide exchange yield lay in the range of 50 to 75%.

B43: ILDEEKFNV (peptide)
peptide: ILDEEKFNV
With B43, the peptide exchange yield was 50 to 75%.

B44: SLDEVAVSL (peptide)
peptide: SLDEVAVSL
With B44, the peptide exchange yield was > 75%.

B45: GLDTILQNL (peptide)
peptide: GLDTILQNL
B45: the peptide exchange yield is > 75%.

B46: HTLPHEIVVNL (peptide)
peptide: HTLPHEIVVNL
Take B46: the peptide exchange yield lay within 50 to 75%.

B47: KLPGFPTQDDEV (peptide)
peptide: KLPGFPTQDDEV
With B47, the peptide exchange yield is 20 to 50%.

B48: ILLDRLFSV (peptide)
peptide: ILLDRLFSV
For B48, the peptide exchange yield was > 75%.

B49: NLPNTNSILGV (peptide)
peptide: NLPNTNSILGV
B49: the peptide exchange yield lay within 50 to 75%.

B50: SIIPYLLEA (peptide)
peptide: SIIPYLLEA
For B50, the peptide exchange yield was > 75%.

B51: IIDPPLHGQLL (peptide)
peptide: IIDPPLHGQLL
B51: the peptide exchange yield lay within 20 to 50%.

B52: GIDDLHISL (peptide)
peptide: GIDDLHISL
Turning to B52, the peptide exchange yield was in the range of 50 to 75%.

B53: FMYAGQLTL (peptide)
peptide: FMYAGQLTL
Consider B53, for which the peptide exchange yield was > 75%.

Source of the values: patent US20190040115A1 (IMMATICS BIOTECHNOLOGIES, published 2019).
